One may read the Kd as the free concentration of one partner at which half of the binding sites on the other are occupied at equilibrium, for simple one-to-one binding. In general, IC50 refers to the concentration at which inhibition is half-maximal.

To fix the notation:
B1: H4H1804N (antibody, human IgG4 S228P, V domains shown)
VH: QVQLHQWGAGLLKPSETLSLTCAVSGVSFSDYHWAWIRQSPGKGLEWIGDINHRGRTNYNPSLKSRVTISLDTSGNPFSLKLTSVTAADTAVYYCARDFPNWVFDSWGQGILVTVSS
VL: EIVLSQSPGTLSLSPGERATLSCRASQSVSSSFLAWYQQYPGQAPRLLIYGASRRATGIPDRFRGSGSGTDFTLTISRLEPEDFAVYYCQQYGSSPLTFGGGTKVENK
notes: human IgG4(S108P) form of H2M1804N
B2: H4H1681N (antibody, human IgG4 S228P, V domains shown)
VH: EVQLLESGGGLVQPGKSLRLSCAVSGFTFSTYGMNWVRQAPGKGLEWVSSISGTGRTTYHADSVQGRFTVSRDNSKNILYLQMNSLRADDTAVYFCTKERGDYYYGVFDYWGQGTLVTVSS
VL: DIQMTQSPSTLSASVGDRVTITCRASQTISSWLAWYQQTPEKAPKLLIYAASNLQSGVPSRFSGSGSGTEFTLTISSLQPDDFATYYCQQYHRSWTFGQGTKVEIT
B3: H4H1752P (antibody, human IgG4 S228P, V domains shown)
VH: EVQLVESGGGLVQPGGSLRLSCSASGFTFSKYVMTWVRQAPGKGLEWVSAIGPTGRTTEYADSVQGRFTISRDNSMNTVFLHLNSLTAEDTAEYYCAKMFDWNYDVYFDSWGQGTLVTVSS
VL: DIQMTQSPSILSASVGDRVTITCRTSQSISNWLAWYQQKPGKAPNLLIYKASSLESGVPSRFSGSGSGTEFTLTISSLQPDDFATYYCQQYYRYWTFGQGTKVEIK
B4: H4H1805N (antibody, human IgG4 S228P, V domains shown)
VH: QVQLQQWGAGLLKPSETLSLTCAVYGGSFTGFYWSWIRQPPGKGLEWIGEINHRGNTNYNPSLKSRVTMSVDTSKNQFSLNMISVTAADTAMYFCASPFYDFWSGSDYWGQGTLVTVSS
VL: DIMLTQTPLTSPVTLGQPASISCKSSQSLVHSDGNTYLSWLQQRPGQPPRLLFYKISNRFSGVPDRFSGSGAGTDFTLKISRVEAEDVGVYYCMQATQFPLTFGGGTKVEIK
notes: human IgG4(S108P) form of H2M1805N
B5: H4H1704N (antibody, human IgG4 S228P, V domains shown)
VH: EVQLVESGGGLVQPGGSLRLSCAVSGFTFSSYWMSWVRQAPGKGLEWVANIKEDGSEKNYVDSVKGRFTLSSDNAKNSLYLQMNSLRAEDTAVYYCAREDYDSYYKYGMDVWGQGTAVIVSS
VL: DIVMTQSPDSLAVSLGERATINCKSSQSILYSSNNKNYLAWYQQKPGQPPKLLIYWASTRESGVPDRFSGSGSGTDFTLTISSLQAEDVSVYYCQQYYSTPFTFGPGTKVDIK
notes: human IgG4(S108P) form of H2M1704N
B6: H4H1750P (antibody, human IgG4 S228P, V domains shown)
VH: QVQLVESGGGVVQPGRSLRLSCVASGFTFSNYGMHWVRQAPGKGLEWVAVISYDGNNDLYSDSVKGRFTISRDNAKNALSLQMTSLRAEDTAVYYCARDSTMTPYYYHGIDVWGQGTTVTVSA
VL: DIQMTQSPSSLSASVGDRVTITCRASQDIRNDLGWYQQKPGKAPKRLIYAASSLQSGVPSRFSGSGSGTDFTLTISSLQPEDFATYYCLQHNSYPPTFGQGTKVEIK
B7: H4H1817N (antibody, human IgG4 S228P, V domains shown)
VH: QVQLQQWGAGLLKPSETLSLTCAVSGGSFSDYFWTWIRQPPGKGLEWIGEISHSGRTNYNPSLKSRVTISVDTSMSQFSLKMTSVTAADSAVYYCARDYPNWVFDYWGQGTLVTVSS
VL: EIELTQSPGTLSLSPGEGATLSCRASQSVFNSYLAWYQQKPGQAPRLLIYGASRRATGIPDRFSGSGSGTDFTLTISRLEPGDFAVYFCQQYGNSPLTFGGGTKVEIK
notes: human IgG4(S108P) form of H2M1817N

Substitutions are numbered along the chain they refer to. Names and notes keep the numbering of the source.

For one experiment, the target named is T1, rat TL1A, soluble, CHO-expressed, residues 76-252 of SEQ ID NO:258 with N-terminal His6-tag (rat, UniProt Q8K3Y7 76-252).
T1 construct: also called rTL1A; rTL1A (CHO)
T1 sequence: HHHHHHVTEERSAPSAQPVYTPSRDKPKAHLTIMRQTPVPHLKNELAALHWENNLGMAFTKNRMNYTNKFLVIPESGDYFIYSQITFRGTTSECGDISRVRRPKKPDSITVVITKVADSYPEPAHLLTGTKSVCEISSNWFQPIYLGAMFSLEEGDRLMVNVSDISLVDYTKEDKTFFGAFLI
In words: SPR 25C, mAb captured. An outline of the steps:
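Biacore T100 SPR with captured mAb and soluble TL1A/Fhm analyte; ka and kd fitted to a 1:1 model assuming monomeric TL1A. KD = kd/ka; t1/2 (min) = ln2/(60·kd).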
On to B1, for which the Kd was 0.321 nM and the t1/2 is 43 min.

With B2, the binding result is listed as “no binding (tested: up to 100 nM)”.

In the case of B3, the binding result is given as “no binding (tested: up to 100 nM)”.

In the case of B4, the binding result is given as “no binding (tested: up to 100 nM)”.

On to B5, for which the Kd was 0.404 nM and the t1/2 was 25 min.

In the case of B6, the binding result is “no binding (tested: up to 100 nM)”.

B7 gave a Kd of 2.5 nM and a t1/2 of 25 min.

In a further experiment the target is T2, human TL1A, soluble, CHO-expressed, residues 72-251 of SEQ ID NO:244 with N-terminal His6-tag (human, UniProt O95150 72-251).
T2 sequence: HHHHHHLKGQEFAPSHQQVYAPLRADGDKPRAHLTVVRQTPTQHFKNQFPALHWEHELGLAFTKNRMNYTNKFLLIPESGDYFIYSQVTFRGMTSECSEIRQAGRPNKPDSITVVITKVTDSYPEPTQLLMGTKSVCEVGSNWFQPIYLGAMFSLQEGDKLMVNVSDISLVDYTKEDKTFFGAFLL
In words: cell-based or functional assay.
For the molecule B1, the “IC50, NFkB-luciferase reporter” value was found to be 0.07 nM.

As for B2, the “IC50, NFkB-luciferase reporter” value worked out at 0.17 nM.

Turning to B3, the “IC50, NFkB-luciferase reporter” value is 0.36 nM.

In the case of B4, the “IC50, NFkB-luciferase reporter” value is 0.1 nM.

Take B5: the “IC50, NFkB-luciferase reporter” value turned out to be 0.13 nM.

As to B6, the “IC50, NFkB-luciferase reporter” value amounted to 0.9 nM.

With B7, the “IC50, NFkB-luciferase reporter” value turned out to be 0.11 nM.

The target in a further experiment is T3, human TL1A, soluble, E. coli-expressed, residues 72-251 of SEQ ID NO:244 (human, UniProt O95150 72-251).
T3 sequence: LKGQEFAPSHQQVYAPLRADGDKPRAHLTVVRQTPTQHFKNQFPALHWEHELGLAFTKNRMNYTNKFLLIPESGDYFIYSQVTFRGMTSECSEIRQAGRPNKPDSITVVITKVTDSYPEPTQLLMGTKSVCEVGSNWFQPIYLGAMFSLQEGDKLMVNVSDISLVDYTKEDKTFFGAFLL
In words: cell-based or functional assay.
On to B1, for which the “IC50, NFkB-luciferase reporter” value came out at 0.03 nM.

For B2, the “IC50, NFkB-luciferase reporter” value worked out at 0.02 nM.

For the molecule B3, the “IC50, NFkB-luciferase reporter” value is 0.21 nM.

For the molecule B4, the “IC50, NFkB-luciferase reporter” value worked out at 0.04 nM.

As for B5, the “IC50, NFkB-luciferase reporter” value is 0.06 nM.

In the case of B6, the “IC50, NFkB-luciferase reporter” value amounted to 2.17 nM.

With B7, the “IC50, NFkB-luciferase reporter” value stood at 0.04 nM.

The target in a further experiment is T4, cynomolgus monkey TL1A, soluble, CHO-expressed, residues 72-251 of SEQ ID NO:248 with N-terminal His6-tag (cynomolgus monkey (Macaca fascicularis), UniProt O95150 72-251 (human entry)).
T4 chain: T2 sequence with F45L, I84V
In words: cell-based or functional assay.
In the case of B1, the “IC50, NFkB-luciferase reporter” value is 0.03 nM.

As for B2, the “IC50, NFkB-luciferase reporter” value came to 0.03 nM.

As for B3, the “IC50, NFkB-luciferase reporter” value came to 0.12 nM.

Regarding B4, the “IC50, NFkB-luciferase reporter” value was found to be 0.03 nM.

Consider B5, for which the “IC50, NFkB-luciferase reporter” value was found to be 0.01 nM.

For the molecule B6, the “IC50, NFkB-luciferase reporter” value amounted to 155 nM.

As for B7, the “IC50, NFkB-luciferase reporter” value stood at 0.04 nM.

The target of a further experiment is T5, cynomolgus monkey TL1A, soluble, E. coli-expressed, residues 72-251 of SEQ ID NO:248 (cynomolgus monkey (Macaca fascicularis), UniProt O95150 72-251 (human entry)).
T5 chain: T3 sequence with F39L, I78V
In words: cell-based or functional assay.
On to B1, for which the “IC50, NFkB-luciferase reporter” value was 0.02 nM.

As to B2, the “IC50, NFkB-luciferase reporter” value is 0.02 nM.

B3: the “IC50, NFkB-luciferase reporter” value worked out at 0.05 nM.

With B4, the “IC50, NFkB-luciferase reporter” value was found to be 0.02 nM.

Consider B5, for which the “IC50, NFkB-luciferase reporter” value came to 0.03 nM.

Regarding B6, the “IC50, NFkB-luciferase reporter” value stood at 32.5 nM.

For B7, the “IC50, NFkB-luciferase reporter” value turned out to be 0.02 nM.

A further experiment has as its target T2, human TL1A, soluble, CHO-expressed, …. In words: cell-based or functional assay. This is another data set of the same source.
As to B1, the “Average % Blocking IFN-g, 3 ug/ml mAb” value was 98%.

For the molecule B2, the “Average % Blocking IFN-g, 3 ug/ml mAb” value was 95%.

Take B3: the “Average % Blocking IFN-g, 3 ug/ml mAb” value amounted to 71%.

For the molecule B4, the “Average % Blocking IFN-g, 3 ug/ml mAb” value was determined as 94%.

Take B5: the “Average % Blocking IFN-g, 3 ug/ml mAb” value came out at 98%.

As to B6, the “Average % Blocking IFN-g, 3 ug/ml mAb” value turned out to be 89%.

B7: the “Average % Blocking IFN-g, 3 ug/ml mAb” value came out at 98%.

The target is the same in another experiment. In words: ELISA, blocks hTL1A (10 pM) binding hDcR3-Fc. The method, then:
(§1) The ability of antibodies to block human TL1A binding to its cognate receptors, the DR3 and DcR3 receptors, was measured using a competition sandwich ELISA. In addition, blocking of a human TL1A variant FHM (human TL1A Q167R) and the cynomolgus monkey (Macaca fascicularis) TL1A (MfTL1A) protein binding to the human DR3 or DcR3 receptors was measured in the same manner. Constant amounts of biotinylated human TL1A or FHM (both expressed with a 6-His tag in CHO cells) or biotinylated MfTL1A (expressed in CHO cells) were separately titrated with varying amounts of antibodies. The antibody-protein complexes were incubated in solution (1 hr, 25° C.) and then transferred to microtiter plates coated with human DR3 (hDR3) or human DcR3 (hDcR3) expressed as human IgG1 Fc fusion proteins. After one hour at 25° C. the wells were washed, and bound human or monkey TL1A was detected with streptavidin conjugated with horseradish peroxidase (HRP). Wells were developed with a TMB solution to produce a colorimetric reaction and quenched with aqueous sulfuric acid before reading absorbance at 450 nm on a Perkin-Elmer Victor X5 plate reader. A sigmoidal dose-response curve was fit to the data using the Prism™ data analysis package. […] Both fully human anti-hTL1A mAbs and comparator antibodies, i.e., control mAb1 (an anti-hTL1A antibody with heavy and light chain variable domains having the amino acid sequences corresponding to SEQ ID NOS:21 and 27, respectively, of US 2009/0280116) and control mAb3 (an anti-hTL1A antibody with heavy and light chain variable domains having the amino acid sequences corresponding to SEQ ID NOS:57 and 48, respectively, of US 2009/0280116), were included in the study. NB: No binding under the conditions tested; NT: Not tested. Concentrations of biotinylated soluble ligands: (1) 150 pM; (2) 500 pM; (3) 10 pM; and (4) 50 pM.
For orientation: In an ELISA, binding on a coated surface is turned into a signal by an enzyme label.
Regarding B1, the IC50 came out at 0.175 nM.

B2 yielded an IC50 of 0.017 nM.

The molecule B3 yielded an IC50 of 0.031 nM.

Consider B4, for which the IC50 came out at 0.033 nM.

Regarding B5, the IC50 was found to be 0.077 nM.

B6 came in with an IC50 of 0.656 nM.

B7 came in with an IC50 of 0.27 nM.

The next experiment shares this target. In words: ELISA, blocks hTL1A (150 pM) binding hDR3-Fc. Here is the method:
as §1
As to B1, the IC50 worked out at 0.04 nM.

B2 returned an IC50 of 0.06 nM.

Molecule B3 returned an IC50 of 0.104 nM.

On to B4, for which the IC50 came out at 0.014 nM.

B5 returned an IC50 of 0.03 nM.

B6 yielded an IC50 of 0.341 nM.

On to B7, for which the 50% inhibitory concentration (IC50) stood at 0.114 nM.

In another experiment the target is T4, cynomolgus monkey TL1A, soluble, …. In words: ELISA, blocks MfTL1A (50 pM) binding hDcR3-Fc. Here is the method:
as §1
Turning to B1, the IC50 stood at 0.034 nM.

Turning to B2, the IC50 was 0.093 nM.

B3 came in with an IC50 of 0.056 nM.

B4 came in with an IC50 of 0.313 nM.

Take B5: the IC50 came out at 0.11 nM.

B7 yielded an IC50 of 0.322 nM.

The record behind these values is patent publication US20140120109A1 (Regeneron, published 2014).
